The results in this text go back to article PMC9323360, “Cloning, Expression, Purification, and Characterization of β-Galactosidase from Bifidobacterium longum and Bifidobacterium pseudocatenulatum” (Molecules, 2022).

As usually defined, the Km is the concentration of substrate that gives half-maximal velocity. What is called kcat is the maximal rate divided by the concentration of active sites.

Substrate in this data set: O=[N+]([O-])c1ccccc1O[C@@H]1O[C@H](CO)[C@H](O)[C@H](O)[C@H]1O
Kind of data set: purified protein.

B1: BPGLB1 (Bifidobacterium pseudocatenulatum) (protein)
chain: MHRTFKWPELLTDNGKGIAYGGDYNPDQWSEDVWDEDVRLMKQAGVNTVAVAIFSWDRIQPEENRWDFGWLDRIIDKLGKAGIAVDLASATATAPLWLYEKHPEVLPQDKFGHPVNAGSRQSWSPTSPVFKEYALTLCRKLAERYGTNPYVTAWHMGNEYGWNNRYDYSDNALNAFRLWCERKYGTIENLNKAWGTTFWGQEMNGFHEVLIPRFMGADSMVNPGQKLDFERFGNDMLLDFYKAERDAIAEICPDKPFTTNFMVSTDQCCMDYADWAEEVDFVSNDHYFHEGESHIDELFCSDALMDSLALGKPWYVMEHSTSAVQWKPLNARKRKGETVRDSIAHVAMGADAINFFQWRASAFGAESFHSALVPHAGEDTKLFRQVCELGAALKTLGDAGVQGTELEQSDTAILFSAESEWATRSETLPSMKLNHWHDVRDWYRAFLNAGTRADIVPLKYDWNAYKTVVLPTVIMLSAEDTQRLADFAAAGGRVVIGYATGLIDENFHTWLGGYPGAGDGLLREMLGIRGEEFNILGAEAEGEPSEIRLSSGAVTRLWQNDVNVDGERAQVLATYEGEEADEWELDGTAAITRNPYGSGETYFVGCDLNVADLTEFVRENIVEDSANVANPADSDVLHTVRKSADATFDFYLPRGKKEIALQGIEGEPIYLFQAEAEERTGSYTVHRNGVLVVKRA
Take B1: under “pH 6.0, 45 °C”, the Michaelis constant (Km) is 1300 ± 300 µM, the Vmax is 1.1 ± 0.1 (oNPG), the kcat stood at 0.5 ± 0.02 s⁻¹ and the kcat/Km is 0.36 (oNPG).

B2: BLGLB1 (Bifidobacterium longum) (protein)
chain: MTTRRTFRWPSLLTESGRGIAFGGDYNPDQWSEETLDEDIRLMVQAGVNTVALAIFSWDKIEPREGEFTFEWLDHVIDKLGAAGIAVDLASATATAPLWLYERHPEVLPIDRYGHVVNAGSRQSWQPTSPVLKEYALRLCRKLAEHYKDNPYVTAWHMGNEYGWNNRYDYSDNALAAFRTWCEAKYGTVDALNEAWGTAFWSQHVNSFDEVLLPRHMGGDSMVNPPQQLDYERFGNDMLLDFYKAERDAIEEICPGKPFTTNFMVSTDQCTMDYAQWANEVDFVSNDHYFHEGESHLDELACSDALMDSLALGKPWYVMEHSTSAVQWKPLNMRKRAGELMRDSLAHVAMGADAINFFQWRQSASGAEAFHSAMVPHAGSDTKLFRGVCELGAALKTLSDAGVQDTELKRADTAILFSAESEWATRSETLPSMKLNHWHDVRDWYRGYLDAGARADVVPLAYDWSGYQTIVLPTVIALSDEDTRRIADFAENGGTVIVGYATGLIDEHFHIGLGGYPGAGNGLLRDMLGIRSEEFNILGEEAEDEPAEIGLSNGLTTRLWQNDVTSVAPDTRVLATYVGTAAADWELDGVPAITSHPHGQGAAIYVGCDLGRHDITHLLKELNTTAPSDERAPDQRPGGGEINAATTTAAAATHDPRILHTIRQSSDGTIRFDFYLNRSKQPVAVNGVEGDPIIAHRCETDAVGYTLNRNAILIAKTSC
With B2, for the setting “pH 5.5, 45 °C”, the Michaelis constant (Km) worked out at 1900 ± 100 µM, the Vmax is reported as 3700 ± 100 (oNPG), the kcat was 1700 ± 40 s⁻¹ and the kcat/Km is reported as 870 (oNPG).
